From patent US20250002588A1 (DIAGONAL THERAPEUTICS, published 2025)
Residue numbers refer to the chain shown, from its start.

T1: human BMPRII protein (Sino Biological, #10551-H08H) (human, UniProt Q13873 27-150)
T1 sequence (looked up): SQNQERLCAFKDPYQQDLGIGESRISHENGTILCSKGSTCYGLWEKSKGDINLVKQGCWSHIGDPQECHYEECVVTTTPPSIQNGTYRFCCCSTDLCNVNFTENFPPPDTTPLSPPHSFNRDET

B1: DGL916 (bispecific antibody)
chain 1: not shown
chain 2: EVQLLESGGGLVQPGGSLRLSCAASGFTFSDYWMTWIRQAPGKGLEWVSSISGGSTYYADSRKGRFTISRDNSENTLYLQMNSLRAEDTAVYYCARDFGVAGWFGQYGMDVWGQGTLVTVSSGGGGSGGGGSGGGGSQSVLTQPPSASGTPGQRVTISCTGSSSNIGAGYDVHWYQQLPGTAPKLLIYRSNQRPSGVPDRFSGSKSGTSASLAISGLRSEDEADYYCSSYAGNYNLVFGGGTKLTVLDKTHTCPPCPAPEAAGAPSVFLFPPKPKDTLMISRTPEVTCVVVDVSHEDPEVKFNWYVDGVEVHNAKTKPREEQYNSTYRVVSVLTVLHQDWLNGKEYKCKVSNKALPAPIEKTISKAKGQPREPQVCTLPPSRDELTKNQVSLSCAVKGFYPSDIAVEWESNGQPENNYKTTPPVLDSDGSFFLVSKLTVDKSRWQQGNVFSCSVMHEALHNHYTQKSLSLSPGWSHPQFEK
B2: DGL909 (bispecific antibody)
chain 1: not shown
chain 2: B1 chain 2
B3: DGL918 (bispecific antibody)
chain 1: not shown
chain 2: B1 chain 2 with S55T, A101S
B4: DGL907 (bispecific antibody)
chain 1: not shown
chain 2: B1 chain 2 with W33Y, T35N, R62V, Q106Y
B5: DGL914 (bispecific antibody)
chain 1: not shown
chain 2: B1 chain 2 with W33Y, T35N, R62V, Q106Y
B6: DGL912 (bispecific antibody)
chain 1: not shown
chain 2: B1 chain 2 with W33Y, T35N, R62V, Y107F
B7: DGL908 (bispecific antibody)
chain 1: not shown
chain 2: B1 chain 2 with W33Y, A101S
B8: DGL915 (bispecific antibody)
chain 1: not shown
chain 2: B1 chain 2 with W33Y, A101S
B9: DGL911 (bispecific antibody)
chain 1: not shown
chain 2: B1 chain 2 with S55T, A101S
B10: DGL917 (bispecific antibody)
chain 1: not shown
chain 2: B1 chain 2 with W33Y, S55T
B11: DGL910 (bispecific antibody)
chain 1: not shown
chain 2: B1 chain 2 with W33Y, S55T
B12: DGL913 (bispecific antibody)
chain 1: not shown
chain 2: B1 chain 2 with Y32S, W33Y, T35S, R62V, W103Y
B13: DGL633 (bispecific antibody)
chain 1: not shown
chain 2: EVQLLESGGGLVQPGGSLRLSCAASGFTFSNAWMNWVRQAPGKGLEWVSSISSSSSYIYYADSVKGRFTISRDNSKNTLYLQMNSLRAEDTAVYYCARAVAAGGMFWGLDQWGQGTLVTVTSSGGGGSGGGGSGGGGSQSVLTQPPSASGTPGQRVTISCSGSRSNIGSNSVHWYQQLPGTAPKLLIYGNSNRPSGVPDRFSGSKSGTSASLAISGLRSEDEADYYCQSYDSSLNDHVVFGGGTKLTVLDKTHTCPPCPAPEAAGAPSVFLFPPKPKDTLMISRTPEVTCVVVDVSHEDPEVKFNWYVDGVEVHNAKTKPREEQYNSTYRVVSVLTVLHQDWLNGKEYKCKVSNKALPAPIEKTISKAKGQPREPQVCTLPPSRDELTKNQVSLSCAVKGFYPSDIAVEWESNGQPENNYKTTPPVLDSDGSFFLVSKLTVDKSRWQQGNVFSCSVMHEALHNHYTQKSLSLSPGWSHPQFEK
B14: DGL634 (bispecific antibody)
chain 1: not shown
chain 2: B13 chain 2
B15: DGL627 (bispecific antibody)
chain 1: not shown
chain 2: B1 chain 2 with W33Y
B16: DGL628 (bispecific antibody)
chain 1: not shown
chain 2: B1 chain 2 with W33Y
B17: DGL625 (bispecific antibody)
chain 1: not shown
chain 2: B1 chain 2 with W33Y
B18: DGL629 (bispecific antibody)
chain 1: not shown
chain 2: B1 chain 2 with W33Y
B19: DGL626 (bispecific antibody)
chain 1: not shown
chain 2: B1 chain 2 with W33Y

Each binder was assayed against T2, ALK-1/BMPR-2 receptor pair of the PathHunter U2Os dimerization cells (DiscoverX 93-0962C3) (UniProt P37023 22-503; Q13873 27-1038) (assay: cell-based or functional assay).
T2 sequence (P37023 22-503, one chain of several): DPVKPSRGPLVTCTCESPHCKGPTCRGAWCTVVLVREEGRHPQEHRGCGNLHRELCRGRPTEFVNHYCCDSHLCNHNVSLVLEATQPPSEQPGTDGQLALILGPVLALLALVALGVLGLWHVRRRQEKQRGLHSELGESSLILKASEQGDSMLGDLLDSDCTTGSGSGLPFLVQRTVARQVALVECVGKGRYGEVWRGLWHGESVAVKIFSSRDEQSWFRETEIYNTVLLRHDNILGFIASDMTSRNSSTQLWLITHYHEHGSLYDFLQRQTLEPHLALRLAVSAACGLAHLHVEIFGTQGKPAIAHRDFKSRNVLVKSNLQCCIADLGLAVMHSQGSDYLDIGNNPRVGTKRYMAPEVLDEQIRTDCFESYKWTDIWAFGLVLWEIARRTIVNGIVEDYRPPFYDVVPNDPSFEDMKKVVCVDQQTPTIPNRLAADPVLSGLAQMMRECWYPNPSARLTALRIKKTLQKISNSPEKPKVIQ

% Emax BMP9 [%]	Emax (RLU)	Binder
41	1.11e+06	B1
24	663000	B2
46	1.24e+06	B3
12	321000	B4
20	557000	B5
33	910000	B6
45	1.23e+06	B7
5	124000	B8
19	521000	B9
17	469000	B10
49	1.33e+06	B11
0	8420	B12

Each binder was assayed against T1, human BMPRII protein (Sino Biological, …) (assay: ELISA, coated human BMPRII).
Protocol: (§1) These binders were then tested using an ELISA assay. High binding plates (Corning, 9018) were coated with either 2 μg/ml of human BMPRII protein (Sino Biological, #10551-H08H) or 2 μg/ml of human ALK1 protein (Sino Biological, #10066-H08H) overnight at 4C. The plates were then washed three times with wash buffer (R&D Systems, WA126). […] The plates were then washed three times with wash buffer and DGL antibodies or controls, which were diluted with PBS and 0.1% BSA. The antibodies were incubated for one hour at room temperature and then the plates were washed three times with wash buffer. The plates were then incubated with mouse anti-human IgG Fc secondary—HRP (diluted with PBS/0.1% BSA); 100 ul per well at 2 μg/ml and incubated at room temperature for one hour. The plate was washed three times in wash buffer and then 100 ul TMB (R&D Systems, DY9998B, substrate reagent pack). After the wells turn blue, 50 ul of stop solution (R&D Systems, DY994) was added to each well and the absorbance of the plate was read at 450 nm. results can be found in Table 8.

Abs450 1 nM	Abs450 10 nM	Abs450 100 nM	Binder
0.12	0.14	0.37	B13
0.12	0.19	0.4	B14
0.15	0.22	0.66	B15
0.17	0.27	0.8	B16
0.17	0.35	1.21	B17
0.18	0.29	0.9	B18
0.17	0.25	0.71	B19

Target: T2, ALK-1/BMPR-2 receptor pair of the …
Experiment: cell-based or functional assay
Remark: another data set of the same source

% Emax BMP9 [%]	Emax (RLU)	Binder
32	586000	B13
16	288000	B14
14	502000	B15
24	884000	B16
17	615000	B17
12	424000	B18
7	258000	B19

The binders below were run against human ALK1 protein (Sino Biological, #10066-H08H) (human, UniProt P37023 22-118) (assay: ELISA, coated human ALK1).
Protocol: as §1

Sequence of human ALK1 protein (Sino Biological, #10066-H08H) (P37023 22-118 limits assumed): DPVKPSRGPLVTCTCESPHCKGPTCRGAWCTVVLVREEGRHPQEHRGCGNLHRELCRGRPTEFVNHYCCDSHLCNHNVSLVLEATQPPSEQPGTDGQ

Abs450 1 nM	Abs450 10 nM	Abs450 100 nM	Binder
0.15	0.78	1.42	B13
0.05	0.07	0.07	B15
0.05	0.12	0.52	B16
0.07	0.07	0.11	B17
0.08	0.08	0.08	B18
0.06	0.07	0.06	B19
